Experimental data published in patent publication US20200024362A1 (SHANGHAI BENEMAE PHARMACEUTICAL, published 2020).
Like-named read-outs stand apart in the source and are kept apart here.

What was measured:
[1] = molecular target: T1, human coagulation factor XI (human, UniProt P03951 19-625); assay: capture ELISA screening of hybridomas from animals immunized with human FXI
T1 construct: Bought from Enzyme Research Laboratory (HFXI 1111); also called FXI; human FXI

human factor XIa [2] = molecular target: T2, human factor XIa (human, UniProt P03951 19-387; P03951 388-625); assay: cell-based or functional assay
[3] = molecular target: T1, human coagulation factor XI; assay: SPR, antibody captured on sensor chip, FXI flowed
Protocol: (§1) The interaction of the antibodies with FXI was determined by the SPR assay on a Biacore T200 system (Biacore, GE Healthcare). Briefly, human IgG capture antibody (Biacore, GE Healthcare) was pre-immobilized on a CM5 sensor chip (GE Healthcare), and test antibodies were captured by flowing through the chip. The final amount of the test antibodies captured was adjusted to an equal amount of 15 response units (RU) by adjusting the capture time. Then, antigen FXI was allowed to flow through the chip for 180 s for association and then for 1200 s for dissociation. […] The data were collected and the affinities between the test antibodies and FXI were analyzed using the Biacore Evaluation Software.
(§2) The test antibodies were captured on a sensor chip, and then indicated concentrations of FXI were allowed to flow through the chip.

human factor XIa [4] = molecular target: T2, human factor XIa; assay: SPR, antibody captured on sensor chip, FXIa flowed
human factor XIa [5] = molecular target: T2, human factor XIa; assay: apparent Ki, inhibition of FXIa (5 nM) cleavage of chromogenic substrate S-2366
[6] = molecular target: T1, human coagulation factor XI; assay: SPR (Biacore T200), antibody captured on anti-human IgG CM5 chip, FXI flowed
Protocol: (§3) The affinity of anti-FXI/FXIa antibodies to FXI/FXIa were determined using surface plasmon resonance (SPR) technology performed on the BIAcore T200 instrument. […] These antibodies were captured onto a Biacore CM5 sensor chip that was pre-immobilized with an anti-human IgG antibody.
(§4) Then different concentrations of the purified antigen FXI or FXIa (0.005-1 μg/mL) were allowed to flow through the CM5 chip for 180 s for association with the anti-FXI/FXIa antibody, followed by a time of 1800 s for dissociation. The binding data was collected and the affinity between FXI/FXIa and the test antibodies was analyzed using the Biacore Evaluation Software provided by GE Healthcare.

human factor XIa [7] = molecular target: T2, human factor XIa; assay: SPR (Biacore T200), antibody captured on anti-human IgG CM5 chip, FXIa flowed
Protocol: as §3, §4

human factor XIa [8] = molecular target: T2, human factor XIa; assay: SPR (Biacore T200), antibody captured on sensor chip, FXIa 0.063 to 6.25 nM flowed
[9] = molecular target: T1, human coagulation factor XI; assay: SPR (Biacore T200), antibody captured on anti-human IgG CM5 chip, FXI 0.063 to 6.25 nM flowed
Protocol: as §1, §2

human factor XIa [10] = molecular target: T2, human factor XIa; assay: cell-based or functional assay; remark: listed apart in the source
human factor XIa [11] = molecular target: T2, human factor XIa; assay: SPR (Biacore T200), antibody captured on sensor chip, FXIa 0.063 to 6.25 nM flowed; remark: listed apart in the source
[12] = molecular target: T1, human coagulation factor XI; assay: SPR (Biacore T200), antibody captured on anti-human IgG CM5 chip, FXI 0.063 to 6.25 nM flowed; remark: listed apart in the source
Protocol: as §1, §2

B1: 34F8 (antibody, V domains shown)
VH: QVQLKESGPGLVQPSQTLSLTCTVSGFSLTTYHVHWVRQPPGKGLEWMGIMWRDGDTSYNSVLKSRLSISRDISKSQVFLKMSSLQTEDTATYFCARGGTLTTPFTYWGQGTLVTVSS
VL: DVVLTQTPGSLSVTLGQQVSISCRSSQSLESRDGNTYLEWYLQKPGQSPQVLLYGVSNRLSGVPDRFLGRGSGADFTLKISRVEPEDLGVYYCFQATHGPFTFGSGTKLEMK
notes: Hybridoma monoclonal antibody
binding result [1]: binds

B2: h-19F6 (antibody, V domains shown)
VH: EVQLVESGGGLVQPGRSLRLSCTASGFTFSKYAMSWVRQAPGKGLEWVSAINYDGSTTYYADSVKGRFTLSRDNSKNTLYLQMNSLRAEDTAVYYCARHPFNNFGIWFAYWGQGTLVTVS
VL: QFQLTQPSSVSASVGDRVTITCERSSGDIGDSYVSWYQQKPGQPPKNVIYADDQRPSGVPDRFSGSIDGSGNSASLTISSLQAEDAADYFCQSYDSNIDFNPVFGGGTKLEVK
notes: Humanized rat antibody in human IgG4 form (variable regions linked to human IgG4 Fc domain, expressed in CHO cells); also called humanized 19F6
IC50 (read off the curve) (human factor XIa [2]): ~3 nM
Kd [3]: 0.022 nM
Kd (human factor XIa [4]): 0.026 nM
Ki (human factor XIa [5]): 0.67 nM
Kd [6]: 0.0222 nM
Kd (human factor XIa [7]): 25.8 pM
koff (human factor XIa [8]): 8.36e-05 s⁻¹
kon (human factor XIa [8]): 3.24e+06 M⁻¹ s⁻¹
koff [9]: 5.88e-05 s⁻¹
kon [9]: 2.65e+06 M⁻¹ s⁻¹

B3: 38E4 (antibody, V domains shown)
VH: EVQLQESGPGLVKPSQSLSLTCSVSGFSITNNYWGWIRKFPRNKMEWIGHISYSGSTNYNPSLKSRISITRDSSKSQFFLQLNSLTTEDTATYYCARGSYYYSASGYFDYWGQGITVTVSS
VL: DIRMTQSPASLSASLGETVNIECLASEDIYSDLAWYQQKPGKSPQLLIYNANSVQNGVPSRFSGSGSGTQYSLKINSLQSEDVATYFCQQFNSYPNTFGAGTKLEIK
notes: Hybridoma monoclonal antibody
binding result [1]: binds

B4: 45H1 (antibody, V domains shown)
VH: EVQLQESGPGLVKPSQSLSLICSVTGYSITTTYWGWIRKFPGNKMEWIGHISNSGSTNYNPSLKSRISVTRDTSTNQFFLQLNSVTTEDTATYYCARGSYYYSASGYFDYWGHGVMVTVSS
VL: DIRMTQSPASLSASLGETVNIGCLASEDIYSDLAWYQQKPGKSPQLLIYNANNLQNGVPSRFSGSGSGTQYSLKINSLQSEDVATYFCQQYNSYPNTFGAGTKLEIK
notes: Hybridoma monoclonal antibody
binding result [1]: binds

B5: 19F6 (antibody, V domains shown)
VH: EVQLVESGGGLVQPGRSLRLSCTASGFTFSKYVMAWVRQAPTKGLEWVASINYDGSTTYYRDSVQGRFTLSRDNAKTTLYLQMDSLRSEDTATYYCARHPFNNFGIWFAYWGQGTLVTVSS
VL: QFTLTQPKSVSGSLRSTITIPCERSSGDIGDSYVSWYQQHLGRPPINVIYADDQRPSEVSDRFSGSIDTSSNSASLTITNLQMDDAADYFCQSYDSNIDFNPVFGGGTKLTVL
notes: Hybridoma monoclonal antibody (rat, immunized with human FXI)
binding result [1]: binds

B6: 21F12 (antibody, V domains shown)
VH: EVQLVESGGGLVQPGRSLKLSCVASGFTFNNHWMTWIRQAPGKGLEWVASITDNGGSTYYPDSVKGRFTISRDNAKSTLYLHMNSLRSEDTATYYCTRDRYDSDGYYYVRYYVVDAWGQGASVTVSS
VL: DVRMTQSPASLSASLGETVNIECLASEDIYSDLAWYQQKPGKSPQLLIYNANSLQNGVPSRFSGSGSGTQYSLKISTLQSEDVATYFCQQYSNYRRTFGGGTKLEIN
notes: Hybridoma monoclonal antibody
binding result [1]: binds

B7: 42F4 (antibody, V domains shown)
VH: EVQLQESGPGLVKPSQSLSLTCSVTGYSITNHYWGWIRKFPGNKMEWIGHISNSGGTNYNPSLKSRISITRDTSKNQFFLQLKSVTTEDTATYYCTRGSYYYSASGYFDYWGQGVLVTVSS
VL: DIRMTQSPASLSASLGETVNIECLASEDIHSDLAWYQQKPGKSPQLLIYNANSLQNGVPSRFSGSGSGTQYSLKITSLQSEDVATYFCQQYTNYPNTFGAGTKLEIN
notes: Hybridoma monoclonal antibody
binding result [1]: binds

B8: 7C9 (antibody, V domains shown)
VH: QIQLVQSGPELKKPGETVKISCKASGYIFTDYGMNWVKQAPGKGLKWMGWINTYTGEPTYADDFKGRFVFSLETSASTAYLQINNLKNEDTATFFCARRRMGYAVDYWGQGTSVTVSS
VL: DIQMTQSPSSLSASLGERVSLTCRASQDIDIRLNWLRQEPDGTIKRLIYATSSLDSGVPKRFSGSRSGSDYSLTISSLESEDFVDYYCLQYASSPFTFGSGTKLEIK
notes: Hybridoma monoclonal antibody
binding result [1]: binds

B9: 13F4 (antibody, V domains shown)
VH: EVQLKESGPGLVQPSQTLSLTCTVSGFSLTDYSVHWVRQPPGKGLEWMGVMWSGGSTAYNPALTSRLTISRDTSKSQVFLKMNSLQTEDTAIYYCTRAPFNNWGNWLPYWGQGTLVTVSS
VL: QFTLTQPKSVSGSLRSTITIPCERSSGDIGDSYVSWYQQHLGRPPINVIYADDQRPSEVSARFSGSIDSSSNSASLTITNLQMDDEADYFCQSYDTYMDVVFGGGTKLNVL
notes: Hybridoma monoclonal antibody
binding result [1]: binds

B10: 42A5 (antibody, V domains shown)
VH: QVQLKESGPGLVQPSQTLSLTCTVSGFSLTSYHLHWIRQPPGKGLEWMGLMWRDGDTSYNSRLKSRLSITRDTSKSQVFLKMSGLQTEDTATYYCARGMTLATPFLYWGQGTLVTVSS
VL: DVVLTQTPGSLSVTLGDPASMSCRSSQSLESSDGNTYLEWYLQKSGQSPQLLIYGVSNRFSGVPDRFAGSGSGTDFTLKISRVEPEDLGVYYCFQATRDPFTFGSGTKLEIN
notes: Hybridoma monoclonal antibody
binding result [1]: binds

B11: 3G12 (antibody, V domains shown)
VH: QVTLKESGPGILQPSQTLSLTCSFSGFSLNTPGMGVSWIRQPSGKGLEWLAHIYWDDDKRFNPSLKSRLTISKDTSRDQVFLMITSVDTADSATYFCARKGRGPFTYWGQGTLVTVSS
VL: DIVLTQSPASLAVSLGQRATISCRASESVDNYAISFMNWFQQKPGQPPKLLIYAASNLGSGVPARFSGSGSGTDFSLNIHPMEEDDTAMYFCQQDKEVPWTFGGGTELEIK
notes: Hybridoma monoclonal antibody
binding result [1]: binds

B12: 5B2 (antibody, V domains shown)
VH: QVTLKESGPGILQPSQTLSLTCSFSGFSLNTSGMGVSWIRQPSGKGLEWLAHIYWDDDKRYKPSLKSRLTISKDTSRNQVFLMITSVDTADTATYYCVRKGRGPFANWGQGTLVTVSA
VL: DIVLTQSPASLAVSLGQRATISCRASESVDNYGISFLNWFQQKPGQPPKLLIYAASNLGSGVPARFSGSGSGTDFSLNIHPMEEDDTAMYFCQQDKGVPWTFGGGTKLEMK
notes: Hybridoma monoclonal antibody
binding result [1]: binds

B13: h-42A5 (antibody, V domains shown)
VH: QVTLKESGPVLVKPTETLTLTCTVSGFSLTSYHLHWIRQPPGKALEWMGLMWRDGDTSYNSRLKSRLTISRDTSKSQVVLTMTNMDPVDTATYYCARGMTLATPFLYWGQGTLVTVSS
VL: DVVLTQTPLSLSVTPGQPASISCRSSQSLESSDGNTYLEWYLQKPGQSPQLLIYGVSNRFSGVPDRFSGSGSGTDFTLKISRVEAEDLGVYYCFQATRDPFTFGQGTKLEIKR
notes: Humanized antibody in human IgG4 form; also called humanized 42A5
IC50 (read off the curve) (human factor XIa [10]): ~5 nM
Kd [3]: 0.036 nM
Kd (human factor XIa [4]): 0.0081 nM
Ki (human factor XIa [5]): 1.43 nM
Kd [6]: 0.0357 nM
Kd (human factor XIa [7]): 8.14 pM
koff (human factor XIa [11]): 1.38e-05 s⁻¹
kon (human factor XIa [11]): 1.69e+06 M⁻¹ s⁻¹
koff [12]: 4.07e-05 s⁻¹
kon [12]: 1.14e+06 M⁻¹ s⁻¹

B14: h-34F8 (antibody, V domains shown)
VH: QVQLQESGPGLVKPSETLSLTCTVSGFSLTTYHVHWVRQPPGKGLEWIGIMWRDGDTYYNSSLKSRVTISRDTSKNQVSLKLSSVTAADTAVYFCARGGTLTTPFTYWGQGTLVTVSS
VL: DVVLTQTPLSLPVTPGEPASISCRSSQSLESRDGNTYLEWYLQKPGQSPQVLLYGVSNRLSGVPDRFSGSGSGTDFTLKISRVEAEDVGVYYCFQATHGPFTFGQGTKLEIKR
notes: Humanized antibody in human IgG4 form; also called humanized 34F8
Ki (human factor XIa [5]): 2.08 nM
Kd [6]: 0.0195 nM
Kd (human factor XIa [7]): 3.85 pM
